Laboratory results as given in US20250136687A1 (SHANDONG SIMCERE BIOPHARMACEUTICAL, published 2025).
Like-named read-outs stand apart in the source and are kept apart here.

Tests used:
[1] = target: T1, human CD3 on the cell surface (Jurkat cells, expanded human T cells, Jurkat-Lucia NFAT cells, human PBMC) (human, UniProt P07766 23-207; P04234 22-171; P09693 23-182); assay: FACS, Jurkat cells
T1 construct: whole, on cells; Endogenous CD3 within the TCR-CD3 complex on cells (also zeta chains and TCR); the cell type is named under assay
Method: (§1) The binding of the chimeric antibodies to CD3 on the cell surface was analyzed by detecting the binding of the antibodies to Jurkat cells and human T cells. Suspension cells Jurkat cells were scale-up cultured in T-75 cell culture flasks to the logarithmic growth phase, the supernatant of the medium was discarded by centrifugation, and the cell pellet was washed 2 times with PBS for later use. The expanded human T cells were washed 2 times with PBS for later use. After counting the cells in the previous step, the cell pellet was resuspended with [PBS+2% (w/w) BSA] blocking solution to 4×10⁶ cells/ml, and added to a 96-well FACS reaction plate at 50 μl/well, and then the chimeric antibody to be tested was added at 50 μl/well, and incubated at 4° C. for 1 h. The cells were centrifuged and washed 3 times with a PBS buffer. […] The cells were centrifuged and washed 5 times with PBS, and FACS (FACS Canto™, purchased from BD Company) was used for detection and result analysis. Data analysis was performed by software (CellQuest) to obtain the mean fluorescence […] (MFI) of the cells. And then software (GraphPad Prism8) was used for analysis, data fitting, and EC50 value calculation. The same method was used to simultaneously detect the binding of the chimeric antibodies to endogenous CD3 negative cells MOLT4 cells.

human CD3ε/δ-His = target: T2, human CD3ε/δ-His (human, UniProt P07766 23-126; P04234 22-105); assay: ELISA, coated antigen
T2 construct: Bought recombinant heterodimer with His tag; also called human CD3ε/δ protein
Method: (§2) To detect the binding activity of the humanized antibodies to CD3 protein, CD3 protein was diluted with PBS to the final concentration of […], then added to a 96-well ELISA plate at 50 μL/well, and the plate was sealed with a plastic film, and incubated overnight at 4° C. On the next day, the plate was washed 2 times with PBS, and a blocking solution [PBS+2% (v/v) BSA] was added for blocking at room temperature for 2 h. The blocking solution was poured off, and the antibody (initial concentration of 100 nM, and gradient dilution at 1:10) or a negative control antibody was added at 50 µl/well. After incubation at 37° C. for 2 h, the plate was washed 3 times with PBS. […] TMB substrate was added at 50 μl/well, and incubated at room temperature for 10 min, and then a stop solution (1.0 N HCl) was added at 50 μl/well. The OD450 nm values were read by an ELISA microplate reader (Multimode Plate Reader, EnSight, purchased from Perkin Elmer).

[2] = target: T3, recombinant human CD3ε-ECD His protein (human, UniProt P07766 23-126); assay: ELISA, coated antigen
T3 construct: extracellular domain; also called human CD3ε-His; CD3ε antigen protein; not shown: His tag
Method: as §2

[3] = target: T1, human CD3 on the cell surface (Jurkat …); assay: cell-based or functional assay
[4] = target: T1, human CD3 on the cell surface (Jurkat …); assay: FACS, expanded human T cells
Method: as §1

[5] = target: T4, cynomolgus monkey CD3 on the surface of expanded monkey T cells (cynomolgus monkey, UniProt Q95LI5 22-198; Q95LI8 22-171; Q95LI7 23-181); assay: FACS, expanded monkey T cells
T4 construct: whole, on cells; Endogenous CD3 within the TCR-CD3 complex on T cells expanded from cynomolgus monkey PBMC

monkey CD3ε protein = target: T5, monkey CD3ε protein (monkey, UniProt Q95LI5 22-117, limits assumed); assay: ELISA, coated antigen
T5 sequence (looked up): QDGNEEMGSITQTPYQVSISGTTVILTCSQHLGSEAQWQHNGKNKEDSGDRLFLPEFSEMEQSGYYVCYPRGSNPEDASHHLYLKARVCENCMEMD

monkey CD3ε/δ-His = target: T6, monkey CD3ε/δ-His (monkey, UniProt Q95LI5 22-117; Q95LI8 22-105); assay: ELISA, coated antigen
T6 construct: Bought recombinant heterodimer with His tag

[6] = target: T4, cynomolgus monkey CD3 on the surface of …; assay: FACS, expanded monkey T cells; remark: listed apart in the source
Method: as §1
FACS detection and data analysis were performed on the cryopreserved monkey T cells of Example 2.4 according to the method in Example 5.1.

T3 sequence (P07766 23-126): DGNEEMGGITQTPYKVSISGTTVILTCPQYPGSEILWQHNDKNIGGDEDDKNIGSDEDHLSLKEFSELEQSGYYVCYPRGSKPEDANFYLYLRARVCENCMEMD
T2 sequence (P07766 23-126, stated change not applied, form in doubt, chain 1 of 2): as the sequence (P07766 23-126) above
T2 sequence (P04234 22-105, stated change not applied, form in doubt, chain 2 of 2): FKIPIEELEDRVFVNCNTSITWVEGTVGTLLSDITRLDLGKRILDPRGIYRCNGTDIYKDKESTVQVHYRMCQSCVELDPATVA
T1 sequence (P07766 23-207, chain 1 of 3): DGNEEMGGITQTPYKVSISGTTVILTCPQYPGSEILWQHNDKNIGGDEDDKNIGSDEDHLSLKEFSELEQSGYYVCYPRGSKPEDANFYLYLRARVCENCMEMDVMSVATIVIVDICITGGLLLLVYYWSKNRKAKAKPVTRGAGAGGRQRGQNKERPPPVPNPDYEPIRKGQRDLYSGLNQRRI
T1 sequence (P04234 22-171, chain 2 of 3): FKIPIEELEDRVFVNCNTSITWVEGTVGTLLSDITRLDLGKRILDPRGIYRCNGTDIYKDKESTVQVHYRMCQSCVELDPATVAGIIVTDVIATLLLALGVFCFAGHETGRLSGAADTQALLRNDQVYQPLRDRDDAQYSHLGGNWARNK
T1 sequence (P09693 23-182, chain 3 of 3): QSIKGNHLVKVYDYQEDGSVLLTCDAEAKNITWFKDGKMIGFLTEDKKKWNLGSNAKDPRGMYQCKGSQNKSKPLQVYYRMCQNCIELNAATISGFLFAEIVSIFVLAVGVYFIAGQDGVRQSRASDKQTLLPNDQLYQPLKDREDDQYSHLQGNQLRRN
T4 sequence (Q95LI5 22-198, chain 1 of 3): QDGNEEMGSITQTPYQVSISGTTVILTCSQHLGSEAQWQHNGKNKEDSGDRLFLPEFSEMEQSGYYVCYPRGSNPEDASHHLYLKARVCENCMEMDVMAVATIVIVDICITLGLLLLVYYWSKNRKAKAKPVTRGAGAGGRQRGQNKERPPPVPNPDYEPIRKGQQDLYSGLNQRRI
T4 sequence (Q95LI8 22-171, chain 2 of 3): as the sequence (P04234 22-171, chain 2 of 3) above, with I5V, N15K, I20V, S32T, D33N, I34N, T64A, S74N, V83L, H141R counted along it
T4 sequence (Q95LI7 23-181, chain 3 of 3): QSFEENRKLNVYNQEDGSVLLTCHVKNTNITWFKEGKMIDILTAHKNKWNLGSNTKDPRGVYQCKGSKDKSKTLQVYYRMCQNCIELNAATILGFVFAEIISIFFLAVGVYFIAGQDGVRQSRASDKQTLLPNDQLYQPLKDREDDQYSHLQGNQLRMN

B1: F2B-hIgG1 (antibody, V domains shown)
VH: EVQLVESGGGLVQPGRSLRLSCAASGFTFDDYAMHWVRQAPGKGLEWVSGISWNSGSIGYADSVKGRFTISRDNAKNSLYLQMNSLRAEDTALYYCAKDSRGYGDYRLGGAYWGQGTLVTVSS
VL: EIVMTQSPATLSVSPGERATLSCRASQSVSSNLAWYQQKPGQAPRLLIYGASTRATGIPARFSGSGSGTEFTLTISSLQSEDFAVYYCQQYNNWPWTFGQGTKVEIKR
notes: also called F2Bs
Work on B1 yielded an EC50 [1] of 20.4 nM, an MFI_Max [1] of 4860 MFI and a max-OD450 (human CD3ε/δ-His) of 0.16 OD450. The binding result [2] was “no binding (tested: 100 nM (initial concentration))”, the max-OD450 [2] was 0.1 OD450 and the “Maximum response value (RLU)” value [3] was 12000 RLU. For the same binder, the EC50 [4] was 5.71 nM, the MFI_Max [4] was 5080 MFI and the max_MFI [5] was 72 MFI. The binding result (monkey CD3ε protein) was “no binding (tested: 100 nM (initial concentration))”, the max-OD450 (monkey CD3ε protein) was 0.06 OD450 and the max-OD450 (monkey CD3ε/δ-His) was 0.05 OD450.

B2: 40G5c-hIgG1 (antibody, V domains shown)
VH: EVQLVQSGAEVKKPGASVKVSCKASGYTFTNYYIHWVRQAPGQGLEWIGWIYPGDGNTKYNEKFKGRATLTADTSTSTAYLELSSLRSEDTAVYYCARDSYSNYYFDYWGQGTLVTVSS
VL: DIVMTQSPDSLAVSLGERATINCKSSQSLLNSRTRKNYLAWYQQKPGQPPKLLIYWASTRESGVPDRFSGSGSGTDFTLTISSLQAEDVAVYYCTQSFILRTFGQGTKVEIKR
In the case of B2, the EC50 [1] is reported as 0.1 nM, the MFI_Max [1] is reported as 29500 MFI and the EC50 (human CD3ε/δ-His) is reported as 0.36 nM. The max-OD450 (human CD3ε/δ-His) was 2.83 OD450, the EC50 [2] was 0.118 nM and the max-OD450 [2] was 3.09 OD450. The “EC50 (nM), luciferase reporter, Jurkat-Lucia NFAT cells” value [3] was 5.97 nM, the “Maximum response value (RLU)” value [3] was 46900 RLU and the EC50 [4] was 0.99 nM. For the same binder, the MFI_Max [4] was 26500 MFI, the EC50 [5] was 0.89 nM and the max_MFI [5] was 24100 MFI. It also gave an EC50 (monkey CD3ε protein) of 0.128 nM, a max-OD450 (monkey CD3ε protein) of 2.96 OD450 and an EC50 (monkey CD3ε/δ-His) of 0.0754 nM. It also gave a max-OD450 (monkey CD3ε/δ-His) of 2.52 OD450, an EC50 [6] of 0.28 nM and an MFI_Max [6] of 66000 MFI.
